Target: the molecule itself
Test: SEC-MALS; Superdex 200 10/300 GL, 150 mM NaCl, 20 mM Tris–HCl pH 8.0, 3 mM DTT; 100 µl of EsaAex_2 at 4 mg/ml loaded, 0.5 ml/min

B1: EsaAex_2 (extracellular domain of EsaA, amino acids 275–689) (domain or fragment)
chain: MSQKDSVELDNYINALKQMDSQIDQQSSMQDTGKEEYKQTVKENLDKLREIIQSQESPFSKGMIEDYRKQLTESLQDELANNKDLQDALNSIKMNNAQFAENLEKQLHDDIVKEPDTDTTFIYNMSKQDFIAAGLNEGEANKYEAIVKEAKRYKNEYNLKKPLAEHINLTDYDNQVAQDTSSLINDGVKVQRTETIKSNDINQLTVATDPHFNFEGDIKINGKKYDIKDQSVQLDTSNKEYKVEVNGVAKLKKDAEKDFLKDKTMHLQLLFGQANRQDEPNDKKATSVVDVTLNHNLDGRLSKDALSQQLSALSRFDAHYKMYTDTKGREDKPFDNKRLIDMMVDQVINDMESFKDDKVAVLHQIDSMEENSDKLIDDILNNKKNTTKNKEDISKLIDQLENVKKTFAEEPQEPK
notes: EsaA, membrane component of the type VIIb secretion system, S. aureus USA300, amino acids 275–689 of the 1009-residue protein; The His tag was cleaved with TEV protease; also called purified extracellular domain; source: E. coli BL21 Star, purified (HisTrap, TEV cleavage, Ni-NTA flowthrough, SEC); not shown: His6, N-terminal, cleaved
- stoichiometry N: 2
